Experimental data reported in the supplement of paper PMC10126150.
± gives the standard deviation of the averaged measurements.

System: ATP
Test: switch fluorescence ratio, 500 uM ATP over buffer (Cy3 cluster intensity, sum of 5 cycles each) (fold (ratio)); higher = stronger signal-on switching upon ATP binding; sequences stand for … in TCGTCGGCAGCGTCAGATGTGTATAAGAGACAGTTTTTTTTTTTTTTTTTTTTTTTTT…TC
Settings: aptamer strand: ATP DNA aptamer (quencher-CACCTGGGGGAGTATTGCGGAGGAAGG + anchor), 100 nM annealed; ATP concentration: 500 uM
How it was run: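 Values give the fluorescence ratio for each switch-domain sequence, averaged from per-cluster ratios of summed target-cycle to summed buffer-cycle Cy3 intensity. The Cy3-labelled switching-strand clusters sat on a modified Illumina MiSeq flow-cell, were annealed to 100 nM quencher-labelled ATP aptamer, and were imaged in selection buffer, then after 15 min with 500 uM ATP at 22 °C. Five cycles ran with NaOH stripping and re-annealing between them, and clusters outside 100-1000 RFU were excluded.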
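Further: ATP exposure 15 min at 22 °C before imaging.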

Point of comparison: CGAATGGCGT, switch fluorescence ratio 1.029 ± 0.0063. Against it:
- GGGTATCTTG — lower, 1 ± 0.003
- CTCAGGGCGT — lower, 0.97546 ± 0.00044
- TATGTCACAA — the same, 1.03 ± 0.014
- TATAGCATCT — higher, 1.047 ± 0.01
- TGTAGTTTAG — within error, 1.01 ± 0.032
- TGGGCTAGAT — within error, 0.998 ± 0.053
- TTCTGGGACT — lower, 0.999 ± 0.021
- GAGGAGGTAT — lower, 0.973 ± 0.019
- ATGGTTAGCT — within error, 1.02 ± 0.027
- ATGATTATGG — within error, 1.02 ± 0.014
- GGGGGGCCGC — the same, 1.03 ± 0.081
- TAGAGAAAAT — lower, 0.964 ± 0.053
- AGTTTGAGGA — within error, 1.01 ± 0.014
- AAAGCCGGTG — lower, 1.022 ± 0.00024
- ATAGGAAAAA — lower, 0.963 ± 0.059
- TATGTACTGT — higher, 1.09 ± 0.03
- CCGTGAGAAT — higher, 1.07 ± 0.018
- TATTGGGCAT — lower, 0.985 ± 0.018
- TACACGAAAA — within error, 1.13 ± 0.13
- GGGAGCCCCA — within error, 1.04 ± 0.039
- TAAAAAATAG — within error, 1.043 ± 0.0086
- CACGTAAAAA — within error, 1.16 ± 0.19
- CTGTATGGGT — lower, 0.9978 ± 0.0094
- CAAAAAGGCG — the same, 1.03 ± 0.054
- TATATCGGCT — the same, 1.03 ± 0.023
- CCCATCCATC — the same, 1.03 ± 0.029
- CCTTTTTATT — lower, 0.9882 ± 0.0064
- ATGCGCTCGA — within error, 1.02 ± 0.053
- TTTTAGTTTC — lower, 1.015 ± 0.0022
- ATTACAGGGC — the same, 1.03 ± 0.012
- ATTTTGTGGG — lower, 1 ± 0.023
- TATTTCTTT — lower, 0.99 ± 0.026
- AAAGTGGTGT — lower, 0.9845 ± 0.0018
- TCATATGAGT — within error, 1 ± 0.051
- TACGTGGGGC — lower, 1.01 ± 0.0079
- TAATGACTCA — the same, 1.034 ± 0.008
- TAAATCAGTA — lower, 0.9888 ± 0.0048
- TCTCTTAAGT — lower, 0.989 ± 0.012
- TTAGGTTGGG — within error, 1.02 ± 0.056
- CAGTGAGGTT — within error, 1.02 ± 0.031
- TCGTTTTGAC — within error, 1.02 ± 0.023
- GGGACGGGGG — within error, 1.06 ± 0.16
- TCACCGAGGC — higher, 1.15 ± 0.07
- GATGAGTTAG — lower, 0.973 ± 0.017
- TCAAGGGAAA — within error, 1 ± 0.058
- TGAGTCCCGG — lower, 1 ± 0.016
- TTTGCGGGGT — the same, 1.03 ± 0.034
- TCGTTCTGGG — lower, 0.996 ± 0.023
- AAGAGGAAGG — lower, 0.9709 ± 0.0027
- TCGGTCCCAG — the same, 1.03 ± 0.014
- TTTTATAAGT — the same, 1.03 ± 0.021
- GGTTACGGTA — within error, 1.04 ± 0.031
- ATTTAAATCT — within error, 1.02 ± 0.023
- CTAGTTCGTC — within error, 0.972 ± 0.12
- GAATTTTGG — lower, 0.9824 ± 0.0032
- TAAACTAAAA — lower, 0.97499 ± 3.2e-05
- AACGGTGATT — within error, 1.01 ± 0.07
- CAGCAGGCGG — within error, 1.01 ± 0.024
- TAGGGAGAAT — within error, 0.992 ± 0.054
- TGTGGGCGC — within error, 1.01 ± 0.098
- TTTAAGTTTC — within error, 1 ± 0.025
- TTACTAGGCC — within error, 1.01 ± 0.034
- TTTACGTCAG — lower, 1.013 ± 0.0034
- CAGGGGAAAG — within error, 1.01 ± 0.033
- AAAGGGGAAC — the same, 1.03 ± 0.028
- TAACGGAGAC — within error, 1.35 ± 0.32
- TATTTTTGGT — lower, 0.986 ± 0.021
- AATTAGATTC — within error, 0.994 ± 0.055
- TTCGGGGTTC — lower, 1.0029 ± 0.00079
- TCCCGGGGGG — within error, 1.14 ± 0.26
- ATAAGAATTG — within error, 1.01 ± 0.06
- AGCGGGGGGT — the same, 1.03 ± 0.033
- GACGGGTTAG — within error, 1.02 ± 0.017
- GACAAATCTG — within error, 1.04 ± 0.043
- AAAACGGAAC — within error, 1.05 ± 0.028
- AGTGGCATGC — lower, 0.985 ± 0.023
- GAGAGGCTGC — lower, 0.975 ± 0.02
- TTATATCGGT — lower, 0.971 ± 0.011
- TTTTGATAAC — lower, 0.97 ± 0.036
- TTGGTTTAAA — lower, 1 ± 0.022
- TATTCAGATA — lower, 0.9773 ± 0.008
- GAGGGCCATT — lower, 0.978 ± 0.017
- ATCAAATCGG — within error, 1.01 ± 0.025
- AAGGGGTCGT — within error, 1 ± 0.025
- TAGGTGTTTG — lower, 0.999 ± 0.018
- GGGACGTGTT — within error, 1.02 ± 0.028
- GGGACCTTTG — lower, 0.994 ± 0.01
- CAGGGGGTTA — within error, 1.02 ± 0.026
- GGGTGTCCTT — within error, 0.998 ± 0.042
- TGGATGTGTG — lower, 0.962 ± 0.038
- AATGTACCCA — higher, 1.09 ± 0.017
- TCACACGTCG — within error, 1.02 ± 0.013
- CTTGTTAGGG — within error, 0.996 ± 0.032
- TGGGGGATGT — lower, 1.01 ± 0.013
- TTTAGGGATA — within error, 1.09 ± 0.19
- TGAATGAATA — the same, 1.027 ± 0.0085
- TATAGCCCGT — within error, 1.02 ± 0.016
- GAATTTGTGG — within error, 0.995 ± 0.037
- ACTGTGCGTA — the same, 1.03 ± 0.054
- CGGATTCGAT — lower, 1.01 ± 0.011
- ATCGGAGGAA — higher, 1.17 ± 0.061
- GTGGTATGTG — lower, 0.95 ± 0.045
- TACACCTCTA — higher, 1.07 ± 0.028
- GTTGTTTGAT — within error, 0.997 ± 0.052
- TACATCGTTT — within error, 1 ± 0.025
- TGGGTGTATA — within error, 1.01 ± 0.017
- GCAAGGGCTA — within error, 1.04 ± 0.045
- ACGTGACACC — higher, 1.35 ± 0.063
- TATATGTCGT — lower, 0.99 ± 0.01
- CGATTTGGGT — within error, 1.02 ± 0.042
- ATTTAATGGG — within error, 0.99 ± 0.035
- CGGGGACTTG — lower, 0.987 ± 0.029
- GTTGTGGCGG — lower, 0.97 ± 0.021
- TTAAGCGGCG — lower, 0.992 ± 0.016
- TGGGGAATAG — within error, 1.04 ± 0.057
- GACGGAAGAA — higher, 1.74 ± 0.072
- AATAGGGGGG — within error, 1.01 ± 0.024
- CGTTGTTGGT — lower, 1.015 ± 0.009
- CGGCGCGTAG — within error, 1.05 ± 0.031
- CAGGGAAGG — lower, 0.995 ± 0.016
- AATAAGTGTT — lower, 0.9792 ± 0.008
- AGGCGGCTTC — the same, 1.03 ± 0.014
- ATCGGAAAAA — within error, 1.02 ± 0.026
- TGGTAACAGG — within error, 1.01 ± 0.021
- TTCCTTCATT — within error, 1.04 ± 0.016
- CGGTATGGGG — within error, 1 ± 0.029
- GTTGCCAAAG — lower, 0.9726 ± 0.0022
- CGGGGGGTAA — within error, 1.01 ± 0.029
- GGTGCAGTGT — within error, 1.05 ± 0.017
- ATGACATGGG — within error, 1.04 ± 0.025
- TTGGTGACCG — the same, 1.03 ± 0.036
- GTGGTGCTTA — within error, 0.996 ± 0.032
- CGTGAAAGTG — lower, 0.991 ± 0.019
- GGGCTCAGGC — lower, 0.988 ± 0.0094
- TACCTGGTCG — the same, 1.03 ± 0.041
- TTTTTTGCCG — within error, 1.05 ± 0.14
- TCAGGTTTGT — within error, 1.28 ± 0.34
- CAGAAGGGTT — within error, 0.997 ± 0.038
- AGGTTACAAT — within error, 1.04 ± 0.043
- TAATAGAAGG — lower, 0.977 ± 0.0098
- AGATTCACTT — lower, 1.01 ± 0.013
- GATAAGGGGT — lower, 0.981 ± 0.035
- AGTGTATACT — lower, 0.9886 ± 0.0021
- AGTTAGACAG — lower, 0.9737 ± 0.0062
- GCCATTTATT — lower, 0.977 ± 0.024
- ATGATATGCA — lower, 1.017 ± 0.003
- TTTTCATAAG — lower, 1 ± 0.011
- GGTTATCGAG — lower, 0.975 ± 0.037
- TCGTTTATCA — lower, 0.9771 ± 0.0073
- GATCGGGCTG — lower, 0.903 ± 0.051
- TCATATTAAG — lower, 0.9911 ± 0.0028
- AATGATATCA — within error, 1.01 ± 0.025
- AAAATCTTAG — within error, 1 ± 0.036
- TCGTTGAGCA — lower, 0.994 ± 0.018
- TTATTTTCAT — within error, 1 ± 0.025
- TTAGTGTTGT — lower, 0.969 ± 0.028
- GGGAAGGAGT — within error, 0.992 ± 0.043
- TTATAAAGAG — within error, 1.01 ± 0.029
- AGGATCGGTA — lower, 0.987 ± 0.022
- AAAAGATTGG — lower, 0.969 ± 0.011
- GAACGGTATT — within error, 1.06 ± 0.065
- CAGGGTGCAT — within error, 1.02 ± 0.051
- GAACGGGGGG — lower, 0.9624 ± 0.0053
- AATTGGAAGG — lower, 0.993 ± 0.012
- TTGCTTTGTG — within error, 1 ± 0.042
- TTTCTGCAGT — within error, 1.27 ± 0.38
- GCAAGATGGG — lower, 0.983 ± 0.015
- TATATAGGGA — lower, 0.981 ± 0.026
- GGGCGATGTT — within error, 0.984 ± 0.04
- AATTTGCGAC — higher, 1.05 ± 0.011
- AATACAATGG — within error, 1.04 ± 0.011
- TACCGTTTAT — within error, 1.02 ± 0.036
- CGTTTTTTCG — within error, 1 ± 0.075
- TTTAAGGCCT — lower, 1 ± 0.021
- TATTTATCTT — lower, 0.989 ± 0.021
- TGGAGTAGG — within error, 1.01 ± 0.025
- AGAGCGTTAG — within error, 1.02 ± 0.051
- GGAATCATAG — within error, 1.06 ± 0.07
- TGACGGGTAC — higher, 1.87 ± 0.087
- TGGATAGCGC — lower, 1.01 ± 0.011
- AAACTAACTT — within error, 1.01 ± 0.046
- GACAACTTTT — lower, 0.991 ± 0.016
- ACCATGGGCC — within error, 1.01 ± 0.018
- TTAGAAGGCA — the same, 1.03 ± 0.036
- ACAGAAGATG — lower, 1.003 ± 0.0087
- GACTTTTTAG — lower, 0.9801 ± 0.0065
